Data as given in publication PMC10936776, “Structural and functional characterization of AfsR, an SARP family transcriptional activator of antibiotic biosynthesis in Streptomyces” (PLOS Biology, 2024).

Experiments:
[1] = target: T1, AfsR (dephosphorylated AfsR) (Streptomyces coelicolor, UniProt P25941); test: in vitro MangoIII transcription assay after preincubation; assay type: biochemical; conditions: 500 nM dephosphorylated AfsR, 1 mM ATPγS preincubation 10 min 30 °C, RNAP-σHrdB, RbpA, CarD; activator
T1 construct: full-length, 993 residues, pET28a (His-tagged), E. coli BL21(DE3), Ni-NTA and SEC; wild type treated with lambda phosphatase (E. coli protein carries pT337); mainly monomer

[2] = target: T2, phosphorylated AfsR (phos-AfsR) (Streptomyces coelicolor, UniProt P25941); test: as above; assay type: biochemical; conditions: 500 nM phosphorylated AfsR, 1 mM ATPγS preincubation; activator
T2 construct: full-length, 993 residues, pET28a (His-tagged), E. coli BL21(DE3); dephosphorylated, then phosphorylated in vitro by AfsKΔC (pS22, pT337, pS391, pT506, pS953 by MS), SEC

[3] = target: AfsR SARP domain;RNAP-sigmaHrdB holoenzyme;RbpA;CarD (Streptomyces coelicolor …, UniProt P25941;P60312;Q9L0L0;Q8CJT1;P18183;Q9KXS1;Q9RKY0;Q9L0Q9 …, |||); test: cryo-EM; 3.35 A; open complex, 13-nt bubble; FP: 20 mM HEPES pH 7.5, 100 mM NaCl, 5 mM MgCl2, 2 mM DTT, 5% glycerol, 0.1 ug/ml poly(dI-dC), 10 nM DNA, 30 C, 20 min; conditions: protein: recombinant;;recombinant;recombinant; tags: pET28a His tag (Ni-NTA);;pET28a His tag (Ni-NTA);pET28a His tag (Ni-NTA); chain copies: 2;2;1;1;1;1;1;1; 44 bp duplex, 6-nt mismatched bubble (-6 to -1), 15 bp duplex
[4] = target: T3, AfsR, dephosphorylated (Streptomyces coelicolor M145, UniProt P25941 1-993); test: fluorescence polarization; preincubated with ATP; DNA binding unchanged; FP: 20 mM HEPES pH 7.5, 100 mM NaCl, 5 mM MgCl2, 2 mM DTT, 5% glycerol, 0.1 ug/ml poly(dI-dC), 10 nM DNA, 30 C, 20 min; conditions: protein: recombinant; tags: pET28a His tag (Ni-NTA); chain copies: 2; label: 5'-FAM; blunt
T3 sequence: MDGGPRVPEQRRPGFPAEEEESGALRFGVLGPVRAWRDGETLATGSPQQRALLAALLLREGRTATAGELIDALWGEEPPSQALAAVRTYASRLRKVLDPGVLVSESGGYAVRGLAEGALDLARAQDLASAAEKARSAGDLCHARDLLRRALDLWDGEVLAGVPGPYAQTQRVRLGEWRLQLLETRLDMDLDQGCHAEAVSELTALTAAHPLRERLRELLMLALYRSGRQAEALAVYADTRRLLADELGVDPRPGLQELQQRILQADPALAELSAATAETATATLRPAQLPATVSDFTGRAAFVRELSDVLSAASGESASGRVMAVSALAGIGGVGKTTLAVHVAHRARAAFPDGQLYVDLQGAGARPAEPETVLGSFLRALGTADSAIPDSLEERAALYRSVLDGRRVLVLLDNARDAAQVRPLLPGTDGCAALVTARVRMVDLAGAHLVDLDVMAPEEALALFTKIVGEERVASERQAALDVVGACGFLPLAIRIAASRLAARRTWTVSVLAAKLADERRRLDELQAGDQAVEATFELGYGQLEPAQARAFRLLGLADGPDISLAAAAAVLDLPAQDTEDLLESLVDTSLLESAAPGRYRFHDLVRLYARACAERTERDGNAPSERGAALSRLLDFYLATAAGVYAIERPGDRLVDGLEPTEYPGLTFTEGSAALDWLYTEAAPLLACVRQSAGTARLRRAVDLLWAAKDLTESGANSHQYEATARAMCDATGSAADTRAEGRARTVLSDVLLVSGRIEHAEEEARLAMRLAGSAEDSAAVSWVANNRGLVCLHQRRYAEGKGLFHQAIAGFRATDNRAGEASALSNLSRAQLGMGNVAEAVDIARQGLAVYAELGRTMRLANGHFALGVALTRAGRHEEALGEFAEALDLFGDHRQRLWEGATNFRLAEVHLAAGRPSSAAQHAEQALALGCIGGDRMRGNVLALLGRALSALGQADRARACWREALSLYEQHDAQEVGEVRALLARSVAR

[5] = target: T4, AfsR SARP domain (Streptomyces coelicolor M145, UniProt P25941 1-270); test: fluorescence polarization; 5 mM Mg2+; poly(dI-dC); FP: 20 mM HEPES pH 7.5, 100 mM NaCl, 5 mM MgCl2, 2 mM DTT, 5% glycerol, 0.1 ug/ml poly(dI-dC), 10 nM DNA, 30 C, 20 min; conditions: protein: recombinant; tags: pET28a His tag (Ni-NTA); chain copies: 2; label: 5'-FAM; blunt
T4 sequence: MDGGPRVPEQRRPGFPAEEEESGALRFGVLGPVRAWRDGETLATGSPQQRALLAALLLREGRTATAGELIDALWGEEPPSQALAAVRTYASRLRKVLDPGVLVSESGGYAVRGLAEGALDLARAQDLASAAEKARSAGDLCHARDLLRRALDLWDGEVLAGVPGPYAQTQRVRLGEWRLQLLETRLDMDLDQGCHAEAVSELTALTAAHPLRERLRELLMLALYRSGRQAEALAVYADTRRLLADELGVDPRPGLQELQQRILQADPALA

[6] = target: T5, AfsR 4E (Streptomyces coelicolor M145, UniProt P25941 1-993, S391E;T337E;T506E;S953E); test: fluorescence polarization; stronger than dephosphorylated AfsR; FP: 20 mM HEPES pH 7.5, 100 mM NaCl, 5 mM MgCl2, 2 mM DTT, 5% glycerol, 0.1 ug/ml poly(dI-dC), 10 nM DNA, 30 C, 20 min; conditions: protein: recombinant; tags: pET28a His tag (Ni-NTA); chain copies: 2; label: 5'-FAM; blunt
T5 sequence: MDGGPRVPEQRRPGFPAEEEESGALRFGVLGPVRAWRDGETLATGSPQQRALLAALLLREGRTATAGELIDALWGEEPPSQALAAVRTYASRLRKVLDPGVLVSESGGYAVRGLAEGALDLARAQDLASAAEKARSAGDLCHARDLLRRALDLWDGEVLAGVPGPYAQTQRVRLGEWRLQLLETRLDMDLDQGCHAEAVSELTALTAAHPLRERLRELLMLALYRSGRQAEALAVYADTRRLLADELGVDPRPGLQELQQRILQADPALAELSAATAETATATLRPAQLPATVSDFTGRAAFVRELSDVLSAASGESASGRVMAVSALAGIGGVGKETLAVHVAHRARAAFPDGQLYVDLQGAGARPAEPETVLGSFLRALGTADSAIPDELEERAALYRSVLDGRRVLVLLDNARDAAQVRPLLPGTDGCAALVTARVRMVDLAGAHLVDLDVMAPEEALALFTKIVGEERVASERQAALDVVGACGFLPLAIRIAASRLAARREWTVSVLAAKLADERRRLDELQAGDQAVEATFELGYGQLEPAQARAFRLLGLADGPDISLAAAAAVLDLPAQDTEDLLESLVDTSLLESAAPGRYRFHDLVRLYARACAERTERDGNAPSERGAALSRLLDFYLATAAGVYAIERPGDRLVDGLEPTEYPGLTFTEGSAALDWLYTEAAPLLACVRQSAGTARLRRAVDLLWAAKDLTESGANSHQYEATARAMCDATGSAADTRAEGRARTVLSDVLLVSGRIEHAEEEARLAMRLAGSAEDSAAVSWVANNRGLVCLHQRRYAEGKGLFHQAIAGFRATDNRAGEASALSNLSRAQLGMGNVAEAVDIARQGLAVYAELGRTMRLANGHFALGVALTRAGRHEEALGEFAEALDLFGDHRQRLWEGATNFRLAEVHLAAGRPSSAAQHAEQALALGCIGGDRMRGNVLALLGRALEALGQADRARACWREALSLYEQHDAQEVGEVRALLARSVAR

Nc1ncnc2c1ncn2[C@@H]1O[C@H](COP(=O)(O)OP(=O)(O)OP(O)(O)=S)[C@@H](O)[C@H]1O [ATPγS]
transcription activation [1]: comparable effect of preincubation with a non-hydrolyzable ATP analogue, ATPγS
transcription activation [2]: exhibits partial activation in response to non-hydrolysable ATPγS

B1: afsS promoter scaffold -50 to +15, 6-nt bubble (dsDNA)
DNA 1: GTAGCCGGAGCGTTCAGCGTTCGTTTATCTCCCCCTGGCACTGTCATCTCCGTCAGACCGTCGCA
DNA 2: TGCGACGGTCTGACGCTCTACACAGTGCCAGGGGGAGATAAACGAACGCTGAACGCTCCGGCTAC
binding result [3]: binds

B2: afs box (-45 to -14) (dsDNA)
DNA 1: CGGAGCGTTCAGCGTTCGTTTATCTCCCCCTG
DNA 2: CAGGGGGAGATAAACGAACGCTGAACGCTCCG
binding result [4]: binds
binding result [5]: binds
binding result [6]: binds
